Reference: patent publication US20160039904A1, “STABILIZED SINGLE HUMAN CD4 DOMAINS AND FUSION PROTEINS” (priority 2013, published 2016)

Assays:
[1] = target: HIV-1 Env of isolate 55815.EC3 (HIV-1); assay: cell-based or functional assay
[2] = target: HIV-1 Env of isolate A07412VRC12A (HIV-1); assay: cell-based or functional assay
[3] = target: HIV-1 Env of isolate AE03 (HIV-1); assay: cell-based or functional assay
[4] = target: HIV-1 Env of isolate AE20 (HIV-1); assay: cell-based or functional assay
[5] = target: HIV-1 Env of isolate BZ167.ec9 (HIV-1); assay: cell-based or functional assay
[6] = target: HIV-1 Env of isolate Bal.EC1 TC (HIV-1); assay: cell-based or functional assay
[7] = target: HIV-1 Env of isolate CAM0015BBY.EC3 (HIV-1); assay: cell-based or functional assay
[8] = target: HIV-1 Env of isolate CH117 (HIV-1); assay: cell-based or functional assay
[9] = target: HIV-1 Env of isolate CH119 (HIV-1); assay: cell-based or functional assay
[10] = target: HIV-1 Env of isolate CH120 (HIV-1); assay: cell-based or functional assay
[11] = target: HIV-1 Env of isolate CH70 (HIV-1); assay: cell-based or functional assay
[12] = target: HIV-1 Env of isolate CH91 (HIV-1); assay: cell-based or functional assay
[13] = target: HIV-1 Env of isolate CM240.EC1 (HIV-1); assay: cell-based or functional assay
[14] = target: HIV-1 Env of isolate CNE1 (HIV-1); assay: cell-based or functional assay
[15] = target: HIV-1 Env of isolate CNE107 (HIV-1); assay: cell-based or functional assay
[16] = target: HIV-1 Env of isolate CNE11 (HIV-1); assay: cell-based or functional assay
[17] = target: HIV-1 Env of isolate CNE15 (HIV-1); assay: cell-based or functional assay
[18] = target: HIV-1 Env of isolate CNE16 (HIV-1); assay: cell-based or functional assay
[19] = target: HIV-1 Env of isolate CNE17 (HIV-1); assay: cell-based or functional assay
[20] = target: HIV-1 Env of isolate CNE23 (HIV-1); assay: cell-based or functional assay
[21] = target: HIV-1 Env of isolate CNE3 (HIV-1); assay: cell-based or functional assay
[22] = target: HIV-1 Env of isolate CNE30 (HIV-1); assay: cell-based or functional assay
[23] = target: HIV-1 Env of isolate CNE49 (HIV-1); assay: cell-based or functional assay
[24] = target: HIV-1 Env of isolate CNE5 (HIV-1); assay: cell-based or functional assay
[25] = target: HIV-1 Env of isolate CNE53 (HIV-1); assay: cell-based or functional assay
[26] = target: HIV-1 Env of isolate CNE55 (HIV-1); assay: cell-based or functional assay
[27] = target: HIV-1 Env of isolate CNE57 (HIV-1); assay: cell-based or functional assay
[28] = target: HIV-1 Env of isolate CNE58 (HIV-1); assay: cell-based or functional assay
[29] = target: HIV-1 Env of isolate CNE59 (HIV-1); assay: cell-based or functional assay
[30] = target: HIV-1 Env of isolate CNE6 (HIV-1); assay: cell-based or functional assay
[31] = target: HIV-1 Env of isolate CNE64 (HIV-1); assay: cell-based or functional assay
[32] = target: HIV-1 Env of isolate CNE65 (HIV-1); assay: cell-based or functional assay
[33] = target: HIV-1 Env of isolate CNE66 (HIV-1); assay: cell-based or functional assay
[34] = target: HIV-1 Env of isolate CNE68 (HIV-1); assay: cell-based or functional assay
[35] = target: HIV-1 Env of isolate CNE7 (HIV-1); assay: cell-based or functional assay
[36] = target: HIV-1 Env of isolate CNE9 (HIV-1); assay: cell-based or functional assay
[37] = target: HIV-1 Env of isolate GS-015.EC12 (HIV-1); assay: cell-based or functional assay
[38] = target: HIV-1 Env of isolate KNH1144.EC1 (HIV-1); assay: cell-based or functional assay
[39] = target: HIV-1 Env of isolate N1 1046.e3 PV (HIV-1); assay: cell-based or functional assay
[40] = target: HIV-1 Env of isolate PBL286.VRC36aPV (HIV-1); assay: cell-based or functional assay
[41] = target: HIV-1 Env of isolate YN192.31 (HIV-1); assay: cell-based or functional assay
[42] = target: gp140Con-s (HIV-1); assay: ELISA (OD 450 nm) on Cons gp140 (gp140Con-s), sCD4Fc titrated [A]

Q: With “D1D2Fc (from UniProt P01730 26-203) (Fc fusion)” as the substance, how does the IC50, neutralization in TZM-bl cell-based assay [1] read?
A: 6.2 nM

Q: And the IC90, neutralization in TZM-bl cell-based assay [1]?
A: 116 nM

Q: What about the IC50, neutralization in TZM-bl cell-based assay [2] of the same substance?
A: 57 nM

Q: And the IC90, neutralization in TZM-bl cell-based assay [2]?
A: > 250 nM

Q: What about the neutralization IC50 [3] of the same substance?
A: > 250 nM

Q: And the neutralization IC90 [3]?
A: > 250 nM

Q: What about the neutralization IC50 [4] of the same substance?
A: 50 nM

Q: And the neutralization IC90 [4]?
A: > 250 nM

Q: What about the IC50, neutralization in TZM-bl cell-based assay [5] of the same substance?
A: 13 nM

Q: What about the IC90, neutralization in TZM-bl cell-based assay [5] of the same substance?
A: 60 nM

Q: What about the IC50, neutralization in TZM-bl cell-based assay [6] of the same substance?
A: 0.6 nM

Q: And the IC50, neutralization in TZM-bl cell-based assay [7]?
A: 41 nM

Q: And the IC90, neutralization in TZM-bl cell-based assay [7]?
A: > 250 nM

Q: And the neutralization IC50 [8]?
A: 27 nM

Q: And the neutralization IC90 [8]?
A: > 250 nM

Q: What about the neutralization IC50 [9] of the same substance?
A: 85 nM

Q: And the neutralization IC90 [9]?
A: > 250 nM

Q: What about the neutralization IC50 [10] of the same substance?
A: 104 nM

Q: And the neutralization IC90 [10]?
A: > 250 nM

Q: What about the neutralization IC50 [11] of the same substance?
A: 7.3 nM

Q: And the neutralization IC90 [11]?
A: 109 nM

Q: What about the neutralization IC50 [12] of the same substance?
A: 35 nM

Q: And the neutralization IC90 [12]?
A: > 250 nM

Q: What about the IC50, neutralization in TZM-bl cell-based assay [13] of the same substance?
A: 20 nM

Q: What about the IC90, neutralization in TZM-bl cell-based assay [13] of the same substance?
A: > 250 nM

Q: What about the neutralization IC50 [14] of the same substance?
A: 197 nM

Q: And the neutralization IC90 [14]?
A: > 250 nM

Q: What about the neutralization IC50 [15] of the same substance?
A: 135 nM

Q: And the neutralization IC90 [15]?
A: > 250 nM

Q: What about the neutralization IC50 [16] of the same substance?
A: > 250 nM

Q: What about the neutralization IC90 [16] of the same substance?
A: > 250 nM

Q: And the neutralization IC50 [17]?
A: 106 nM

Q: What about the neutralization IC90 [17] of the same substance?
A: > 250 nM

Q: What about the neutralization IC50 [18] of the same substance?
A: 11 nM

Q: And the neutralization IC90 [18]?
A: 229 nM

Q: And the neutralization IC50 [19]?
A: 11 nM

Q: What about the neutralization IC90 [19] of the same substance?
A: 231 nM

Q: What about the neutralization IC50 [20] of the same substance?
A: > 250 nM

Q: And the neutralization IC90 [20]?
A: > 250 nM

Q: And the neutralization IC50 [21]?
A: > 250 nM

Q: What about the neutralization IC90 [21] of the same substance?
A: > 250 nM

Q: What about the neutralization IC50 [22] of the same substance?
A: 17 nM

Q: What about the neutralization IC90 [22] of the same substance?
A: 211 nM

Q: And the neutralization IC50 [23]?
A: 21 nM

Q: What about the neutralization IC90 [23] of the same substance?
A: 224 nM

Q: What about the neutralization IC50 [24] of the same substance?
A: 94 nM

Q: What about the neutralization IC90 [24] of the same substance?
A: 236 nM

Q: And the neutralization IC50 [25]?
A: 14 nM

Q: What about the neutralization IC90 [25] of the same substance?
A: > 250 nM

Q: What about the neutralization IC50 [26] of the same substance?
A: 213 nM

Q: What about the neutralization IC90 [26] of the same substance?
A: > 250 nM

Q: What about the neutralization IC50 [27] of the same substance?
A: 250 nM

Q: And the neutralization IC90 [27]?
A: > 250 nM

Q: What about the neutralization IC50 [28] of the same substance?
A: > 250 nM

Q: What about the neutralization IC90 [28] of the same substance?
A: > 250 nM

Q: What about the neutralization IC50 [29] of the same substance?
A: 10 nM

Q: What about the neutralization IC90 [29] of the same substance?
A: 220 nM

Q: What about the neutralization IC50 [30] of the same substance?
A: 68 nM

Q: What about the neutralization IC90 [30] of the same substance?
A: 192 nM

Q: What about the neutralization IC50 [31] of the same substance?
A: 12 nM

Q: What about the neutralization IC90 [31] of the same substance?
A: 113 nM

Q: And the neutralization IC50 [32]?
A: 15 nM

Q: What about the neutralization IC90 [32] of the same substance?
A: 115 nM

Q: What about the neutralization IC50 [33] of the same substance?
A: 159 nM

Q: What about the neutralization IC90 [33] of the same substance?
A: > 250 nM

Q: What about the neutralization IC50 [34] of the same substance?
A: 9.7 nM

Q: And the neutralization IC90 [34]?
A: 133 nM

Q: And the neutralization IC50 [35]?
A: 19 nM

Q: What about the neutralization IC90 [35] of the same substance?
A: 161 nM

Q: What about the neutralization IC50 [36] of the same substance?
A: 9.9 nM

Q: What about the neutralization IC90 [36] of the same substance?
A: 63 nM

Q: What about the IC50, neutralization in TZM-bl cell-based assay [37] of the same substance?
A: 0.2 nM

Q: And the IC50, neutralization in TZM-bl cell-based assay [38]?
A: 4.8 nM

Q: And the IC50, neutralization in TZM-bl cell-based assay [39]?
A: 183 nM

Q: What about the IC90, neutralization in TZM-bl cell-based assay [39] of the same substance?
A: > 250 nM

Q: What about the IC50, neutralization in TZM-bl cell-based assay [40] of the same substance?
A: 87 nM

Q: And the IC90, neutralization in TZM-bl cell-based assay [40]?
A: > 250 nM

Q: And the neutralization IC50 [41]?
A: 155 nM

Q: What about the neutralization IC90 [41] of the same substance?
A: > 250 nM

Q: And the EC50 (read off the curve) [42]?
A: 1 nM
